Data published in patent US20190338048A1 (published 2019).
Residue numbers refer to the chain shown, from its start. In names and notes the source's numbering stands. Read-outs that look alike come from different tables or passages of the source.

B1: Pertuzumab kappa light chain construct (L2) Q38K, HA-tagged (other, not shown: small tags and cut ends)
light: DIQMTQSPSSLSASVGDRVTITCKASQDVSIGVAWYQKKPGKAPKLLIYSASYRYTGVPSRFSGSGSGTDFTLTISSLQPEDFATYYCQQYYIYPYTFGQGTKVEIKRTVAAPSVFIFPPSDEQLKSGTASVVCLLNNFYPREAKVQWKVDNALQSGNSQESVTEQDSKDSTYSLSSTLTLSKADYEKHKVYACEVTHQGLSSPVTKSFNRGEC
B2: Pertuzumab kappa light chain construct (L2) Q38R, HA-tagged (other, not shown: small tags and cut ends)
light: B1 light with K38R
B3: Pertuzumab kappa light chain construct (L2) Q38E, HA-tagged (other, not shown: small tags and cut ends)
light: B1 light with K38E
B4: CAT-2200 Fab heterodimer H1L1, no pairing substitutions (wild-type H1 and L1), light chain with FLAG tag (Fab, V domains shown, not shown: small tags and cut ends)
VH: not shown
VL: NFMLTQPHSVSESPGKTVTISCTRSSGSLANYYVQWYQQRPGSSPTIVIFANNQRPSGVPDRFSGSIDSSSNSASLTISGLKTEDEADYYCQTYDPYSVVFGGGTKLTVLG
B5: CAT-2200 Fab heterodimer H1L1 of designs 10662-10731 and 10662-10733 (H1 L45F, L1 unmodified) (Fab, name in Kabat numbering, V domains shown, not shown: small tags and cut ends)
VH: EVQLLESGGGLVQPGGSLRLSCAASGFTFSSYAMSWVRQAPGKGFEWVSAISGSGGSTYYADSVKGRFTISRDNSKNTLYLQMNSLRAEDTAVYYCARDLIHGVTRNWGQGTLVTVSS
VL: B4 VL
B6: Pertuzumab Fab heterodimer H2L2 of design 10674-10749 (H2 Q39K, L2 Q38E) (Fab, name in Kabat numbering, V domains shown, not shown: small tags and cut ends)
VH: EVQLVESGGGLVQPGGSLRLSCAASGFTFTDYTMDWVRKAPGKGLEWVADVNPNSGGSIYNQRFKGRFTLSVDRSKNTLYLQMNSLRAEDTAVYYCARNLGPSFYFDYWGQGTLVTVSS
VL: DIQMTQSPSSLSASVGDRVTITCKASQDVSIGVAWYQEKPGKAPKLLIYSASYRYTGVPSRFSGSGSGTDFTLTISSLQPEDFATYYCQQYYIYPYTFGQGTKVEIKR

Legend:
[1] = target: CAT-2200 heavy chain Fab construct (H1), wild type; assay: LCCA, SPR tag read-out
[2] = target: Pertuzumab heavy chain Fab construct (H2) Q39D (VH Q39D); assay: LCCA, SPR tag read-out
[3] = target: Pertuzumab heavy chain Fab construct (H2) Q39E (VH Q39E); assay: LCCA, SPR tag read-out
[4] = target: CAT-2200 heavy chain Fab construct (H1) Q39K (VH Q39K); assay: LCCA, SPR tag read-out
[5] = target: Pertuzumab heavy chain Fab construct (H2) Q39D (VH Q39D); assay: LCCA, SPR tag read-out; remark: listed apart in the source
[6] = target: Pertuzumab heavy chain Fab construct (H2) Q39E (VH Q39E); assay: LCCA, SPR tag read-out; remark: listed apart in the source
[7] = target: CAT-2200 heavy chain Fab construct (H1) Q39K (VH Q39K); assay: LCCA, SPR tag read-out; remark: listed apart in the source
[8] = target: Pertuzumab heavy chain Fab construct (H2) Q39D (VH Q39D); assay: LCCA, SPR tag read-out; remark: listed apart in the source
[9] = target: Pertuzumab heavy chain Fab construct (H2) Q39E (VH Q39E); assay: LCCA, SPR tag read-out; remark: listed apart in the source
[10] = target: CAT-2200 heavy chain Fab construct (H1) Q39R (VH Q39R); assay: LCCA, SPR tag read-out
[11] = target: CAT-2200 heavy chain Fab construct (H1) Q39R (VH Q39R); assay: LCCA, SPR tag read-out; remark: listed apart in the source
[12] = target: CAT-2200 heavy chain Fab construct (H1) Q39D (VH Q39D); assay: LCCA, SPR tag read-out
[13] = target: CAT-2200 heavy chain Fab construct (H1) Q39E (VH Q39E); assay: LCCA, SPR tag read-out
[14] = target: Pertuzumab heavy chain Fab construct (H2) Q39R (VH Q39R); assay: LCCA, SPR tag read-out
[15] = target: CAT-2200 heavy chain Fab construct (H1) Q39E (VH Q39E); assay: LCCA, SPR tag read-out; remark: listed apart in the source
[16] = target: Pertuzumab heavy chain Fab construct (H2) Q39K (VH Q39K); assay: LCCA, SPR tag read-out
Recombinant human IL-17A [17] = target: Recombinant human IL-17A (human, UniProt Q16552 20-155, limits assumed); assay: SPR
Target sequence in this assay (Q16552 20-155 limits assumed): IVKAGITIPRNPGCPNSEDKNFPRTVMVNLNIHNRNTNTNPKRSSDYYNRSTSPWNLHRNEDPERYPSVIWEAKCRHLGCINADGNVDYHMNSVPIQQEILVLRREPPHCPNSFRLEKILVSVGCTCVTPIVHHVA

Recombinant human IL-17A [18] = target: Recombinant human IL-17A (human, UniProt Q16552 20-155, limits assumed); assay: SPR; remark: listed apart in the source
Target sequence in this assay (Q16552 20-155 limits assumed): as above

[19] = target: T1, Recombinant HER2 protein (HER2-ECD) (UniProt P04626 23-652, limits assumed); assay: SPR
[20] = target: T1, Recombinant HER2 protein (HER2-ECD); assay: SPR, Fab captured, HER2 as analyte

Binder	H1L1:H1L2 normalized median ratio (H1L2 part) [1] [%]	H2L2:H2L1 normalized median ratio (H2L2 part) [2] [%]	H2L2:H2L1 normalized median scalar value ln(r1/f1) [2]	H2L2:H2L1 normalized median ratio (H2L2 part) [3] [%]	H2L2:H2L1 normalized median scalar value ln(r1/f1) [3]	H2L2:H2L1 normalized median ratio (H2L2 part) [5] [%]	H2L2:H2L1 normalized median scalar value ln(r1/f1) [5]	H2L2:H2L1 normalized median ratio (H2L2 part) [6] [%]	H2L2:H2L1 normalized median scalar value ln(r1/f1) [6]	H2L2:H2L1 normalized median ratio (H2L2 part) [8] [%]	H2L2:H2L1 normalized median scalar value ln(r1/f1) [8]	H2L2:H2L1 normalized median ratio (H2L2 part) [9] [%]	H2L2:H2L1 normalized median scalar value ln(r1/f1) [9]	further results
B1	33	47	-0.11	47	-0.11	75	1.09	75	1.09	79	1.35	78	1.29	H1L1:H1L2 normalized median ratio (H1L2 part) [4]: 29%; H1L1:H1L2 normalized median ratio (H1L2 part) [7]: 35%
B2	26	49	-0.03	48	-0.08	77	1.19	73	1.02	92	2.47	77	1.19	H1L1:H1L2 normalized median ratio (H1L2 part) [10]: 23%; H1L1:H1L2 normalized median ratio (H1L2 part) [11]: 28%
B3	–	–	–	–	–	–	–	–	–	–	–	–	–	H1L1:H1L2 normalized median ratio (H1L2 part) [12]: 36%; H1L1:H1L2 normalized median ratio (H1L2 part) [13]: 31%; H2L2:H2L1 normalized median ratio (H2L2 part) [14]: 54%; H2L2:H2L1 normalized median scalar value ln(r1/f1) [14]: 0.15; H1L1:H1L2 normalized median ratio (H1L2 part) [15]: 24%; H2L2:H2L1 normalized median ratio (H2L2 part) [16]: 54%
B4	–	–	–	–	–	–	–	–	–	–	–	–	–	Change in KD of H1L1 Fab vs wild type (Recombinant human IL-17A [17]): 0
B5	–	–	–	–	–	–	–	–	–	–	–	–	–	Kd (Recombinant human IL-17A [18]): 0.29 nM
B6	–	–	–	–	–	–	–	–	–	–	–	–	–	Kd [19]: 6.09 nM; Change in KD of H2L2 Fab vs wild type, -(log(KD_design)-log(KD_wt)) [20]: 0.12 log(KD) difference
